Key:
[1] = biological target: the molecule itself; assay: blue native PAGE (legend of FIG. 4), self-association
[2] = biological target: the molecule itself; assay: blue native PAGE (BN-PAGE), self-association

Protein | binding result [1] | binding result [2]
bis-ANS treated GRP94 (porcine pancreas GRP94 preincubated with bis-ANS) (other, UniProt Q29092 22-804, looked up) EDEVDVDGTVEEDLGKSREGSRTDDEVVQREEEAIQLDGLNASQIRELREKSEKFAFQAEVNRMMKLIINSLYKNKEIFLRELISNASDALDKIRLISLTDENALAGNEELTVKIKCDKEKNLLHVTDTGVGMTREELVKNLGTIAKSGTSEFLNKMAEAQEDGQSTSELIGQFGVGFYSAFLVADKVIVTSKHNNDTQHIWESDSNEFSVIADPRGNTLGRGTTITLVLKEEASDYLELDTIKNLVKKYSQFINFPIYVWSSKTETVEEPMEEEEAAKEEKEESDDEAAVEEEEEEKKPKTKKVEKTVWDWELMNDIKPIWQRPSKEVEDDEYKAFYKSFSKESDDPMAYIHFTAEGEVTFKSILFVPTSAPRGLFDEYGSKKSDYIKLYVRRVFITDDFHDMMPKYLNFVKGVVDSDDLPLNVSRETLQQHKLLKVIRKKLVRKTLDMIKKIADEKYNDTFWKEFGTNIKLGVIEDHSNRTRLAKLLRFQSSHHPSDITSLDQYVERMKEKQDKIYFMAGSSRKEAESSPFVERLLKKGYEVIYLTEPVDEYCIQALPEFDGKRFQNVAKEGVKFDESEKSKENREAVEKEFEPLLNWMKDKALKDKIEKAVVSQRLTESPCALVASQYGWSGNMERIMKAQAYQTGKDISTNYYASQKKTFEINPRHPLIRDMLRRVKEDEDDKTVSDLAVVLFETATLRSGYLLPDTKAYGDRIERMLRLSLNIDPDAKVEEEPEEEPEETTEDTTEDTEQDDDEEMDAGADEEEQETSETSTAEKDEL | binds | –
GRP94 (glucose regulated protein of 94 kDa), native, purified from porcine pancreas (other, UniProt Q29092 22-804, looked up, also called native GRP94; gp96) EDEVDVDGTVEEDLGKSREGSRTDDEVVQREEEAIQLDGLNASQIRELREKSEKFAFQAEVNRMMKLIINSLYKNKEIFLRELISNASDALDKIRLISLTDENALAGNEELTVKIKCDKEKNLLHVTDTGVGMTREELVKNLGTIAKSGTSEFLNKMAEAQEDGQSTSELIGQFGVGFYSAFLVADKVIVTSKHNNDTQHIWESDSNEFSVIADPRGNTLGRGTTITLVLKEEASDYLELDTIKNLVKKYSQFINFPIYVWSSKTETVEEPMEEEEAAKEEKEESDDEAAVEEEEEEKKPKTKKVEKTVWDWELMNDIKPIWQRPSKEVEDDEYKAFYKSFSKESDDPMAYIHFTAEGEVTFKSILFVPTSAPRGLFDEYGSKKSDYIKLYVRRVFITDDFHDMMPKYLNFVKGVVDSDDLPLNVSRETLQQHKLLKVIRKKLVRKTLDMIKKIADEKYNDTFWKEFGTNIKLGVIEDHSNRTRLAKLLRFQSSHHPSDITSLDQYVERMKEKQDKIYFMAGSSRKEAESSPFVERLLKKGYEVIYLTEPVDEYCIQALPEFDGKRFQNVAKEGVKFDESEKSKENREAVEKEFEPLLNWMKDKALKDKIEKAVVSQRLTESPCALVASQYGWSGNMERIMKAQAYQTGKDISTNYYASQKKTFEINPRHPLIRDMLRRVKEDEDDKTVSDLAVVLFETATLRSGYLLPDTKAYGDRIERMLRLSLNIDPDAKVEEEPEEEPEETTEDTTEDTEQDDDEEMDAGADEEEQETSETSTAEKDEL | – | binds
heat shocked GRP94 (porcine pancreas GRP94 incubated 15 minutes at 50 C) (other, UniProt Q29092 22-804, looked up, also called hs GRP94; heat-treated GRP94) EDEVDVDGTVEEDLGKSREGSRTDDEVVQREEEAIQLDGLNASQIRELREKSEKFAFQAEVNRMMKLIINSLYKNKEIFLRELISNASDALDKIRLISLTDENALAGNEELTVKIKCDKEKNLLHVTDTGVGMTREELVKNLGTIAKSGTSEFLNKMAEAQEDGQSTSELIGQFGVGFYSAFLVADKVIVTSKHNNDTQHIWESDSNEFSVIADPRGNTLGRGTTITLVLKEEASDYLELDTIKNLVKKYSQFINFPIYVWSSKTETVEEPMEEEEAAKEEKEESDDEAAVEEEEEEKKPKTKKVEKTVWDWELMNDIKPIWQRPSKEVEDDEYKAFYKSFSKESDDPMAYIHFTAEGEVTFKSILFVPTSAPRGLFDEYGSKKSDYIKLYVRRVFITDDFHDMMPKYLNFVKGVVDSDDLPLNVSRETLQQHKLLKVIRKKLVRKTLDMIKKIADEKYNDTFWKEFGTNIKLGVIEDHSNRTRLAKLLRFQSSHHPSDITSLDQYVERMKEKQDKIYFMAGSSRKEAESSPFVERLLKKGYEVIYLTEPVDEYCIQALPEFDGKRFQNVAKEGVKFDESEKSKENREAVEKEFEPLLNWMKDKALKDKIEKAVVSQRLTESPCALVASQYGWSGNMERIMKAQAYQTGKDISTNYYASQKKTFEINPRHPLIRDMLRRVKEDEDDKTVSDLAVVLFETATLRSGYLLPDTKAYGDRIERMLRLSLNIDPDAKVEEEPEEEPEETTEDTTEDTEQDDDEEMDAGADEEEQETSETSTAEKDEL | – | binds

From patent US20030215874A1 (published 2003)
